Data: PMC4628001, “Hybrid PET/optical imaging of integrin αVβ3 receptor expression using a ^64Cu-labeled streptavidin/biotin-based dimeric RGD peptide” (EJNMMI Research, 2015)

Molecular target: T1, integrin αVβ3 (Homo sapiens, UniProt P05106+P06756)
T1 construct: U87MG cells, which are known to express high levels of integrin αVβ3; endogenous in cells; host or cells: U87MG cells
Assay: Cell integrin receptor binding, U87MG cells, ^125I-RGDyK radioligand
Conditions: displacement of ^125I-RGDyK, room temperature 1 h, pH 7.4 binding buffer, n = 3
Procedure: The integrin αVβ3 receptor binding study was performed using a previously reported procedure with a slight modification. ^125I-RGDyK was used as the radioligand and prepared immediately before use. […] All experiments were performed in triplicate. IC50 values were determined using GraphPad Prism software 5.

T1 sequence (P06756 31-889 limits assumed): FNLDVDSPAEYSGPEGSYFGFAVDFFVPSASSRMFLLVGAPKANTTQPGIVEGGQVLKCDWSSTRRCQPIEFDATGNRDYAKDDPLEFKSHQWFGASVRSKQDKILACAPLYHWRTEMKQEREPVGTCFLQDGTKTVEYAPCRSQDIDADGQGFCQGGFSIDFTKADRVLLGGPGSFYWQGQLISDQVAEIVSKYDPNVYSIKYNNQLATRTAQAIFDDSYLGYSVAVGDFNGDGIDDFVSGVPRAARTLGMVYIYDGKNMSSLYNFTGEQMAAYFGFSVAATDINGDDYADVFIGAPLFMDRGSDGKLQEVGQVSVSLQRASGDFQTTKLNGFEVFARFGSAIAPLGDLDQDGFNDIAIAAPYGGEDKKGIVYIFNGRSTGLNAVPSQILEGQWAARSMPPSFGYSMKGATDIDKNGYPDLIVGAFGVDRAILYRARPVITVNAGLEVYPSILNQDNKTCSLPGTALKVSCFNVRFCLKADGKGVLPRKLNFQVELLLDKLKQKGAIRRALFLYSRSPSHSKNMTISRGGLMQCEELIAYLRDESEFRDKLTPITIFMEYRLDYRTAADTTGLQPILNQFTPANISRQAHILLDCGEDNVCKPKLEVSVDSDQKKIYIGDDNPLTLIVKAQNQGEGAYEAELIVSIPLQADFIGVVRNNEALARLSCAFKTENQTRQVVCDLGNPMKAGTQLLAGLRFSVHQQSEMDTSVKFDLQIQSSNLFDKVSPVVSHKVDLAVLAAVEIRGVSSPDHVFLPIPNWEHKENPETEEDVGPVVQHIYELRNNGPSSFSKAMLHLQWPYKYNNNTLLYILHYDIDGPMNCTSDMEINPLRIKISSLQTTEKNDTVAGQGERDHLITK
T1 sequence (P06756 891-1048 partner limits assumed): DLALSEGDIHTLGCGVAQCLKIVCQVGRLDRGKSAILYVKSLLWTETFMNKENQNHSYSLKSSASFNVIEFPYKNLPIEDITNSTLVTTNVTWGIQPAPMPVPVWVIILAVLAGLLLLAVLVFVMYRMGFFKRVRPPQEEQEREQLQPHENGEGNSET
T1 sequence (P05106 27-788): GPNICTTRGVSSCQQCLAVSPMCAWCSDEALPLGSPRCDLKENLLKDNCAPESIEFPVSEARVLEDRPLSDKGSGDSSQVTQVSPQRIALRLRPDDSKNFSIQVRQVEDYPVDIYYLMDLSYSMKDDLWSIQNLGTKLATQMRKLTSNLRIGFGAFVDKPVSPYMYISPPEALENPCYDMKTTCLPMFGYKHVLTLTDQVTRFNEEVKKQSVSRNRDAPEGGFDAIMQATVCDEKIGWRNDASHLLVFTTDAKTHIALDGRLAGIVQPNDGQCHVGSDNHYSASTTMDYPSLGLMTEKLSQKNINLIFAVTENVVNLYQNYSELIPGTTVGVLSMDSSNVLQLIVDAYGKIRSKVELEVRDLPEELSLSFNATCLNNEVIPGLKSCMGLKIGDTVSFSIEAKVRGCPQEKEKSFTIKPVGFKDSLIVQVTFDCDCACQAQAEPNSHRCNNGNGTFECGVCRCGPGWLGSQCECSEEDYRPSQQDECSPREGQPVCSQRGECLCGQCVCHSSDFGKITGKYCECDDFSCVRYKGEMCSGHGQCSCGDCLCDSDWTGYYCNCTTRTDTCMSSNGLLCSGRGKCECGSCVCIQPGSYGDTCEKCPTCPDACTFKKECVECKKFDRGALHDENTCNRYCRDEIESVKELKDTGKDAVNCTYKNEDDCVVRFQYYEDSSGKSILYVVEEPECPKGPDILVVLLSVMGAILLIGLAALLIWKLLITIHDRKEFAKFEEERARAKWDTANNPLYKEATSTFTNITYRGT

## DOTA-(AF)SAv/biotin-PEG-RGD2: unlabeled complex comprising DOTA-(AF)SAv and biotin-PEG-RGD2
  IC50: 12.1 ± 4.2 nM
